Consider one substance from publication PMC7962898.

The experiment addresses Porcine Epidemic Diarrhea Virus Spike ectodomain, Sf9 expressed (Porcine epidemic diarrhea virus (PEDV) USA/Colorado/2013) (UniProt Q91AV1). The experiment is described as follows: cryo-EM structure.

The stoichiometry N is the number of molecules, sites or subunits per partner or assembly. For “Porcine Epidemic Diarrhea Virus Spike ectodomain, Sf9 expressed (from UniProt Q91AV1 26-1322) (domain or fragment)”, the stoichiometry N is 3.
